Reference: US20210340530A1 (INTELLIA THERAPEUTICS, published 2021)

Experiments:
[1] = target: T1, … (VLD) WT1 peptide pulsed on target cells (HLA-02.01 positive T2 cell line; OCI-AML3); experiment: cell-based or functional assay
[2] = target: T2, … (RMF) WT1 peptide pulsed on target cells (HLA-02.01 positive T2 cell line; OCI-AML3); experiment: cell-based or functional assay
[3] = target: T1, … (VLD) WT1 peptide pulsed on target …; experiment: cell-based or functional assay; remark: listed apart in the source
[4] = target: T1, … (VLD) WT1 peptide pulsed on target …; experiment: cell-based or functional assay; remark: listed apart in the source
[5] = target: T1, … (VLD) WT1 peptide pulsed on target …; experiment: cell-based or functional assay; remark: listed apart in the source
[6] = target: T2, … (RMF) WT1 peptide pulsed on target …; experiment: cell-based or functional assay; remark: listed apart in the source
[7] = target: T1, … (VLD) WT1 peptide pulsed on target …; experiment: cell-based or functional assay; remark: listed apart in the source
[8] = target: T2, … (RMF) WT1 peptide pulsed on target …; experiment: cell-based or functional assay; remark: listed apart in the source
[9] = target: T3, VLD-Tetramer (pMHC tetramer with WT1 peptide …); experiment: flow cytometry, VLD-Tetramer staining of engineered T cells; TRAC RNP only
T3 construct: Staining reagent; also called VLD (Wilms' tumor antigen) tetramer; TCR specific pMHC tetramer
Protocol: (§1) Four to 12 days after RNP nucleofection, edited T cells (200 ul/200,000 cells) were collected in a 96 well round bottom plate and spun down at 500 g for 5 minutes. Cells were then resuspended in an antibody mixture containing a combination of antibodies targeting CD3, CD4, CD8, CD45RO, CD45RA, CD27, CCR7, CD62L, and/or the TCR specific pMHC tetramer or TCR specific Vbeta chain antibody. The mixture was incubated for 45 minutes at room temperature in the dark. Samples were spun down at 500 g for 5 minutes, cell pellets collected, and resuspended in 1:10,000 DAPI (Biolegend—#422801) in FACS buffer. Flow cytometry was then performed using the cytoflex according to the manufacturer's instructions.
(§2) T cells were evaluated with additional engineered TCRs for the impact of endogenous beta chains on pairing of both the inserted alpha chain and inserted beta chain. The experiment was performed as described herein except tetramer staining was used to measure MFI and the AAV inserts in Table 31 were used for transduction.

[10] = target: T3, VLD-Tetramer (pMHC tetramer with WT1 …); experiment: flow cytometry, VLD-Tetramer staining of engineered T cells; TRAC + TRBC RNP
Protocol: as §1, §2

B1: TCR-A (WT1-specific T-cell receptor) (TCR)
TCR alpha: SQQPVQSPQAVILREGEDAVINCSSSKALYSVHWYRQKHGEAPVFLMILLKGGEQKGHEKISASFNEKKQQSSLYLTASQLSYSGTYFCGTAWINDYKLSFGAGTTVTVRANIQNPDPAVYQLRDSKSSDKSVCLFTDFDSQTNVSQSKDSDVYITDKTVLDMRSMDFKSNSAVAWSNKSDFACANAFNNSIIPEDTFFPSPESSCDVKLVEKSFETDTNLNFQNLSVIGFRILLLKVAGFNLLMTLRLWSS
TCR beta: DAGVIQSPRHEVTEMGQEVTLRCKPISGHDYLFWYRQTMMRGLELLIYFNNNVPIDDSGMPEDRFSAKMPNASFSTLKIQPSEPRDSAVYFCASRKTGGYSNQPQHFGDGTRLSILEDLKNVFPPEVAVFEPSEAEISHTQKATLVCLATGFYPDHVELSWWVNGKEVHSGVSTDPQPLKEQPALNDSRYCLSSRLRVSATFWQNPRNHFRCQVQFYGLSENDEWTQDRAKPVTQIVSAEAWGRADCGFTSESYQQGVLSATILYEILLGKATLYAVLVSALVLMAMVKRKDSRG
notes: P2A remnant on the beta chain is not described; also called AV11-TCR-A; TCR-A (no cys)
Caspase 3/7 integrated intensity; TRAC only; 0 nM VLD; T2 [1]: 9040
Caspase 3/7 integrated intensity; TRAC only; 0.005 nM VLD; T2 [1]: 9180
Caspase 3/7 integrated intensity; TRAC only; 0.05 nM VLD; T2 [1]: 16900
Caspase 3/7 integrated intensity; TRAC only; 0.5 nM VLD; T2 [1]: 38800
Caspase 3/7 integrated intensity; TRAC only; 5 nM VLD; T2 [1]: 137000
Caspase 3/7 integrated intensity; TRAC only; 50 nM VLD; T2 [1]: 207000
Caspase 3/7 integrated intensity; TRAC only; 500 nM VLD; T2 [1]: 233000
Caspase 3/7 integrated intensity; TRAC/TRBC; 0 nM VLD; T2 [1]: 381000
Caspase 3/7 integrated intensity; TRAC/TRBC; 0.005 nM VLD; T2 [1]: 374000
Caspase 3/7 integrated intensity; TRAC/TRBC; 0.05 nM VLD; T2 [1]: 1.13e+06
Caspase 3/7 integrated intensity; TRAC/TRBC; 0.5 nM VLD; T2 [1]: 1.17e+06
Caspase 3/7 integrated intensity; TRAC/TRBC; 5 nM VLD; T2 [1]: 1.33e+06
Caspase 3/7 integrated intensity; TRAC/TRBC; 50 nM VLD; T2 [1]: 1.2e+06
Caspase 3/7 integrated intensity; TRAC/TRBC; 500 nM VLD; T2 [1]: 1.57e+06
Caspase 3/7 integrated intensity; TRAC only; 500 nM RMF; T2 [2]: 7340
Caspase 3/7 integrated intensity; TRAC/TRBC; 500 nM RMF; T2 [2]: 280000
IL2 release; TRAC only; 0 nM VLD; T2 [3]: 2.26 pg/mL
IL2 release; TRAC only; 0.005 nM VLD; T2 [3]: 2250 pg/mL
IL2 release; TRAC only; 0.05 nM VLD; T2 [3]: 2050 pg/mL
IL2 release; TRAC only; 0.5 nM VLD; T2 [3]: 2010 pg/mL
IL2 release; TRAC only; 5 nM VLD; T2 [3]: 4270 pg/mL
IL2 release; TRAC only; 50 nM VLD; T2 [3]: 7060 pg/mL
IL2 release; TRAC only; 500 nM VLD; T2 [3]: 8380 pg/mL
IL2 release; TRAC/TRBC; 0 nM VLD; T2 [3]: 314 pg/mL
IL2 release; TRAC/TRBC; 0.005 nM VLD; T2 [3]: 304 pg/mL
IL2 release; TRAC/TRBC; 0.05 nM VLD; T2 [3]: 227 pg/mL
IL2 release; TRAC/TRBC; 0.5 nM VLD; T2 [3]: 200 pg/mL
IL2 release; TRAC/TRBC; 5 nM VLD; T2 [3]: 494 pg/mL
IL2 release; TRAC/TRBC; 50 nM VLD; T2 [3]: 1180 pg/mL
IL2 release; TRAC/TRBC; 500 nM VLD; T2 [3]: 1510 pg/mL
IFN-gamma release; TRAC/TRBC; 50 nM VLD; T2 [4]: 40200
IFN-gamma release; TRAC/TRBC; 500 nM VLD; T2 [4]: 47600
IFN-gamma release; only TRAC; 50 nM VLD; T2 [4]: 28100
IFN-gamma release; only TRAC; 500 nM VLD; T2 [4]: 31500
% CD4+ TNFa+ IFNg+; TRAC/TRBC; 0 nM VLD; T2 [5]: 1.1%
% CD4+ TNFa+ IFNg+; TRAC/TRBC; 0.005 nM VLD; T2 [5]: 1.6%
% CD4+ TNFa+ IFNg+; TRAC/TRBC; 0.05 nM VLD; T2 [5]: 1.2%
% CD4+ TNFa+ IFNg+; TRAC/TRBC; 0.5 nM VLD; T2 [5]: 1.8%
% CD4+ TNFa+ IFNg+; TRAC/TRBC; 5 nM VLD; T2 [5]: 11.1%
% CD4+ TNFa+ IFNg+; TRAC/TRBC; 50 nM VLD; T2 [5]: 25.1%
% CD8+ TNFa+ IFNg+; TRAC/TRBC; 0 nM VLD; T2 [5]: 9.4%
% CD8+ TNFa+ IFNg+; TRAC/TRBC; 0.005 nM VLD; T2 [5]: 21%
% CD8+ TNFa+ IFNg+; TRAC/TRBC; 0.05 nM VLD; T2 [5]: 53%
% CD8+ TNFa+ IFNg+; TRAC/TRBC; 0.5 nM VLD; T2 [5]: 74.3%
% CD8+ TNFa+ IFNg+; TRAC/TRBC; 5 nM VLD; T2 [5]: 79.8%
% CD8+ TNFa+ IFNg+; TRAC/TRBC; 50 nM VLD; T2 [5]: 81.3%
% CD4+ TNFa+ IFNg+; TRAC/TRBC; 50 nM RMF; T2 [6]: 1.6%
% CD8+ TNFa+ IFNg+; TRAC/TRBC; 50 nM RMF; T2 [6]: 10%
% CD4+ CD107a+; TRAC/TRBC; 0 nM VLD; T2 [7]: 4.45%
% CD4+ CD107a+; TRAC/TRBC; 0.005 nM VLD; T2 [7]: 4.64%
% CD4+ CD107a+; TRAC/TRBC; 0.05 nM VLD; T2 [7]: 4.68%
% CD4+ CD107a+; TRAC/TRBC; 0.5 nM VLD; T2 [7]: 4.23%
% CD4+ CD107a+; TRAC/TRBC; 5 nM VLD; T2 [7]: 11.8%
% CD4+ CD107a+; TRAC/TRBC; 50 nM VLD; T2 [7]: 21.1%
% CD8+ CD107a+; TRAC/TRBC; 0 nM VLD; T2 [7]: 21.9%
% CD8+ CD107a+; TRAC/TRBC; 0.005 nM VLD; T2 [7]: 37.3%
% CD8+ CD107a+; TRAC/TRBC; 0.05 nM VLD; T2 [7]: 64.1%
% CD8+ CD107a+; TRAC/TRBC; 0.5 nM VLD; T2 [7]: 73%
% CD8+ CD107a+; TRAC/TRBC; 5 nM VLD; T2 [7]: 75.8%
% CD8+ CD107a+; TRAC/TRBC; 50 nM VLD; T2 [7]: 76.2%
% CD4+ CD107a+; TRAC/TRBC; 50 nM RMF; T2 [8]: 4.3%
% CD8+ CD107a+; TRAC/TRBC; 50 nM RMF; T2 [8]: 22.1%
Mean % Tetramer+ (CD4+) [9]: 7.6%
Mean % Tetramer+ (CD8+) [9]: 12.7%
Mean Tetramer MFI (CD4+) [9]: 10100 MFI
Mean Tetramer MFI (CD8+) [9]: 21900 MFI
Mean % Tetramer+ (CD4+) [10]: 48%
Mean % Tetramer+ (CD8+) [10]: 51.2%
Mean Tetramer MFI (CD4+) [10]: 11300 MFI
Mean Tetramer MFI (CD8+) [10]: 23700 MFI
